B1: library; numbered along this chain (parent)
chain: MAAAGGARLLRAASAVLGGPAGRWLHHAGSRAGSSGLLRNRGPGGSAEASRSLSVSARARSSSEDKITVHFINRDGETLTTKGKVGDSLLDVVVENNLDIDGFGACEGTLACSTCHLIFEDHIYEKLDAITDEENDMLDLAYGLTDRSRLGCQICLTKSMDNMTVRVPETVADARQSIDVGKTS

Variants of: B1
Experiment: scaled log2 fold change in cell abundance, elesclomol vs control (0 = silent mean, 1 = nonsense mean) (scaled log2 ratio); higher = higher viability under elesclomol (loss of FDX1 cuproptosis function)
Conditions: glucose 10 mM
[1] = with ABC1 FDX1 KO, elesclomol 5 nM, 14 days
[2] = with HEK293T FDX1 KO, elesclomol 40 nM, 11 days
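Note: variant abundance is its share of total variant reads in each endpoint sample, from next-generation sequencing of the integrated ORF PCR-amplified out of genomic DNA.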

Variant	scaled log2 fold change [1]	scaled log2 fold change [2]
M163V	-0.168	0.941
M163F	0.518	-0.42
M163D	1.16	0.514
M163A	-0.185	
M163S	-0.173	0.99
M163C	-0.512	0.319
M163H	0.707	0.257
M163P	0.859	0.441
M163T	-0.131	0.00152
M163G	0.325	-0.225
M163R	0.657	-0.245
M163I	0.122	0.861
M163Q	0.357	-0.237
M163L	0.385	0.864
M163K	0.823	0.16
M163E	0.522	0.691
M163W	0.598	0.247
M163Y	0.547	-0.538
M163N	0.51	0.528
R166K	-0.502	-0.393
R166H	-0.236	
R166M	0.144	-0.000209
R166D	0.375	-0.407
R166V	-0.116	0.509

Variant	scaled log2 fold change [1]	scaled log2 fold change [2]
R166Q	-0.338	-0.083
R166W	-0.00581	0.748
R166E	-0.677	-0.967
R166Y	0.394	1.92
R166S	0.275	-0.368
R166A	0.373	0.284
R166L	-0.509	0.328
R166C	-0.501	-0.211
R166G	0.266	-0.344
R166N	-0.198	0.918
R166T	0.529	-0.473
R166P	1.06	1.77
R166F	-0.233	0.799
R166I	-0.0924	-0.203
D173C	-0.031	0.0714
D173H	0.000185	-0.579
D173K	0.645	0.0902
D173V	0.418	-0.196
D173W	-0.0293	
D173R	0.198	0.613
D173M	-0.417	0.0547
D173F	0.306	-0.0815
D173E	0.188	1.27
D173L	-0.299	0.205

Variant	scaled log2 fold change [1]	scaled log2 fold change [2]
D173Y	0.241	-0.0391
D173N	0.304	-0.47
D173A	0.245	0.105
D173S	0.248	-0.827
D173T	-0.0187	
D173G	0.473	-0.138
D173P	0.0487	0.601
D173Q	0.224	0.251
P168Y	0.394	-0.173
P168C	0.163	0.254
P168E	0.408	-0.105
P168N	0.157	-0.31
P168M	0.157	-0.366
P168S	0.106	0.443
P168V	0.143	-0.0343
P168F	0.153	0.798
P168K	0.508	-0.335
P168H	0.377	0.136
P168Q	0.259	0.667
P168I	-0.0742	0.61
P168W	0.463	0.286
P168T	0.449	-0.142
P168D	0.403	1.03
P168A	0.158	-0.0417

Variant	scaled log2 fold change [1]	scaled log2 fold change [2]
P168L	0.485	0.478
P168R	0.453	0.117
N162V	0.0601	0.0858
N162Q	0.14	-1.17
N162E	0.0612	0.838
N162L	-0.0365	-0.341
N162Y	0.0965	0.0713
N162G	-0.601	
N162T	-0.0302	0.362
N162M	0.128	-0.13
N162A	0.23	0.844
N162D	-0.354	0.0725
N162C	-0.275	0.0594
N162K	-0.0702	0.386
N162F	0.167	-0.244
N162R	0.34	-0.871
N162H	-0.203	0.208
N162W	0.1	0.831
N162S	0.162	
N162I	-0.0298	-0.611
N162P	0.182	-0.234
A172H	-0.391	0.0671
A172N	-0.267	-0.223
A172P	-0.333	0.355

Variant	scaled log2 fold change [1]	scaled log2 fold change [2]
A172F	-0.0712	0.241
A172Q	0.194	0.591
A172T	-0.0186	1.1
A172Y	0.17	
A172L	-0.0445	-0.675
A172R	-0.163	0.124
A172W	0.0817	0.744
A172C	-0.253	-0.168
A172K	0.212	
A172I	0.216	1.09
A172S	0.42	0.922
A172D	0.0896	1.11
A172E	0.236	0.926
A172M	-0.557	-0.421
A172V	0.337	-0.531
A172G	-0.0465	0.05
T170W	-0.0505	0.993
T170I	-0.092	0.126
T170K	0.0703	0.727
T170P	-0.219	0.16
T170L	-0.0824	-0.244
T170C	0.268	-0.365
T170Q	0.241	-0.893
T170F	0.262	0.826

Variant	scaled log2 fold change [1]	scaled log2 fold change [2]
T170N	-0.0752	0.953
T170V	-0.0936	-0.713
T170H	-0.102	-1.19
T170M	-0.185	
T170Y	0.0553	-0.221
T170D	0.239	
T170A	-0.0897	-0.0909
T170S	-0.088	-0.432
T170E	0.0373	-0.644
T170R	-0.159	
T170G	0.233	-0.241
E169W	-0.134	0.73
E169I	-0.202	-0.174
E169L	-0.227	-0.347
E169R	0.0391	0.411
E169Q	-0.166	0.849
E169F	-0.455	0.0831
E169A	0.277	-0.0328
E169V	-0.251	0.342
E169D	-0.464	1.13
E169P	-0.343	0.322
E169H	0.197	0.526
E169C	-0.223	-0.0591
E169G	-1.32	0.409

Variant	scaled log2 fold change [1]	scaled log2 fold change [2]
E169K	-0.0829	1.04
E169M	-0.846	0.0592
E169Y	-0.0627	-0.484
E169S	-1.11	-0.0914
E169T	-0.402	-0.135
E169N	-0.234	0.306
T164E	-0.00918	0.119
T164Q	-0.171	
T164V	0.342	1.31
T164H	0.213	-0.0955
T164K	-0.0707	0.0715
T164P	0.508	-0.0295
T164D	0.108	0.818
T164M	-0.076	-0.072
T164N	0.361	1.04
T164I	-0.259	-0.338
T164W	-0.403	-0.13
T164A	0.408	0.0905
T164Y	-1.38	0.173
T164L	-0.159	-0.224
T164R	-0.0678	-0.0374
T164F	0.0235	-0.4
T164C	0.25	0.194
T164G	0.367	-0.293

Variant	scaled log2 fold change [1]	scaled log2 fold change [2]
T164S	-0.253	0.99
V167N	0.111	-0.228
V167I	-0.468	0.138
V167E	0.136	0.156
V167C	-0.124	0.517
V167K	0.318	0.00856
V167W	0.155	-0.0986
V167F	0.518	
V167P	0.251	-0.184
V167Q	0.218	1.05
V167M	0.222	-0.0856
V167A	-0.622	0.856
V167H	0.217	1.13
V167T	0.214	0.998
V167R	0.264	-0.286
V167Y	-0.0283	0.556
V167G	0.269	0.997
V167D	0.489	0.995
V167L	-0.207	-0.904
V167S	0.152	0.0174
V165R	1.09	1.45
V165H	1.12	0.873
V165M	-0.123	-0.424
V165Y	1.03	1.38

Variant	scaled log2 fold change [1]	scaled log2 fold change [2]
V165K	1.08	1.01
V165C	0.0302	0.944
V165N	0.812	1.02
V165D	1.12	0.895
V165S	0.00333	0.568
V165Q	1.06	1.21
V165L	-0.0209	-0.834
V165P	0.71	0.4
V165G	0.475	0.411
V165W	0.852	0.405
V165E	1.06	1.35
V165I	-0.183	-0.249
V165T	0.13	-0.566
V165F	0.53	0.286
V165A	-0.0573	-0.318
A174H	0.267	-0.0112
A174F	-1.02	-1.07
A174I	0.163	0.249
A174D	-0.995	0.361
A174M	0.0375	-0.275
A174K	-0.0242	0.0836
A174E	-0.219	0.0347
A174N	-0.0564	
A174G	-0.324	0.643

Variant	scaled log2 fold change [1]	scaled log2 fold change [2]
A174C	-0.397	
A174L	0.255	0.483
V171T	-0.214	-0.343
V171L	0.231	0.229
V171D	-0.592	-0.239
V171Q	-0.00995	0.876
V171R	-0.31	-0.328
V171I	-0.139	0.238
V171H	-0.198	-0.163
V171W	0.0569	0.292
V171P	0.142	0.0269
V171A	-0.586	0.229
V171C	-0.178	-0.0893
V171E	0.182	-0.192
V171M	0.452	0.0122
V171S	-0.0546	0.136
V171K	4.83e-05	-0.343
V171F	0.0552	-0.419
V171Y	-0.342	-0.405
V171N	-0.524	0.216

— the supplement of paper PMC12855868
